Where no end group is shown, it is not given here. [ ]: non-standard residue; d: D form.
Experiments:
purified GPIb = purified GPIb (Homo sapiens, UniProt P07359); assay: Overlapping vWf L-peptides on cellulose membrane probed by purified GPIb; format: binding; conditions: detected by anti-GPIb coupled to HRP
Experimental: The vWf amino acid sequence was used to generate 10-mer L-amino acid overlapping peptides, shifted by two (2), according to the following pattern:
These peptides were synthesized and remained attached on the cellulose membrane. The membranes were probed by purified GPIb which was detected by anti-GPIb coupled to horseradish peroxidase (HRP). A number of positive spots were found whose sequences were derived from their positions on the membrane.
The sequences were analyzed in silico by (a) finding their positions in a 3D model of the parent protein (see FIG. 17) and then (b) relating that position to the potential vWf-GPIb interactive site.

purified vWf = biological target: T1, purified vWf (Homo sapiens, UniProt P04275); assay: Random 15-mer D-peptide array probed with purified vWf; format: binding; conditions: peptide on cellulose membrane, detection with anti-human vWf IgG-HRP
T1 construct: gift of Dr. F. A. Ofosu, McMaster University
Text: Random D-amino acid peptides (15 mer) were synthesized and probed with vWf to detect random sequences capable of binding vWf.
Random peptide arrays of 1120 peptides made of D-amino acids were synthesized on a cellulose membrane using an AutoSpot ASP 222 peptide synthesizer (ABiMED, Langenfeld, Germany). The resulting replicate libraries of 15-mer sequences were probed for vWf binding function by exposing the membranes to purified vWf (a gift of Dr. F. A. Ofosu, McMaster University, Hamilton ON, Canada) and blocking with milk, then identifying positive spots with a polyclonal goat anti-human vWf IgG coupled to horseradish peroxidase (Cedarlane, Canada). Immunochemical detection was done using the chemiluminescent substrates from the Amersham Pharmacia ECL kit; and the resulting spots were recorded on photographic film. Negative controls consisted of probing the membranes with the antibodies only, but without prior exposure of the membrane to purified vWf.
Peptides on random 15-mer peptide arrays that were built of D-amino acids were selected by their binding of vWf. Four sequences were identified: D-pep1-VSRQNGKQYWAIKEG (SEQ ID NO:1); D-pep2-WQNEGTHVLSRCYEC (SEQ ID NO:2); D-pep3-RSARMQVCWNAFKNR (SEQ ID NO:3); and D-pep4-DSCPRDWDNNFLFFE (SEQ ID NO:4). […] The identification of each vWf-peptide binding interface constitutes the results that follow.
Source—a random d-peptide array was probed with vWf and developed with […]. “Forward” D-amino acid peptides were tested, although L-amino acid versions of the peptides as well as the reverse (retro) of both L- and D-sequences will be also encompassed within the scope of these receptor molecules.

[1] = Stability of the covalent linkage of peptide to hydrogel liposomes (Trp fluorescence); format: physicochemical; conditions: hypothermic liquid storage, 4° C., under nitrogen, in the dark
Experimental: In brief: fluorescence emission at 348 nm (excitation 280 nm) of the single tryptophan of peptide D-Pep3 was used to analyze the stability of the peptide on the liposomes' surface. Fluorescence emission standard curves of trp-associated fluorescence were prepared using a range of concentrations from 1 μM to 20 μM free peptide D-Pep3 in the presence of 1 mM PEG2000 or HL liposomes (FIG. 34).
HL and PEG2000 liposomes were reacted with D-Pep3 peptide (as described according to Scheme 1) then washed and adjusted to a concentration of 1 mM lipid. The fluorescence emission was measured. The samples were stored under nitrogen, in the dark, at 4° C. for one month. The liposomes were again washed, resuspended to the same lipid concentration and the fluorescence emission was measured as before (FIG. 35). The attachment was stable for >1 months in hypothermic liquid storage.

vWf = biological target: T2, vWf (Homo sapiens, UniProt P04275); assay: Capture of vWf from plasma cryoglobulin fraction; format: binding; conditions: human cryoprecipitate 1/100, 1 hour at 37° C., anti-vWf-FITC
T2 construct: mixed with 5 μL human cryoprecipitate diluted 1/100 in Hepes Buffered Saline; from tissue; host or cells: human plasma cryoprecipitate
Experimental: Aliquots of 30 μL of HL or D-Pep3-HL liposomes were mixed with 5 μL human cryoprecipitate diluted 1/100 in Hepes Buffered Saline, (10 mM Hepes, 154 mM NaCl, pH 7.4.) The samples were diluted in buffer to achieve final lipid concentrations of 0.1, 0.25, 0.5, 0.75 and 1 mM, and incubated for 1 hour at 37° C. Anti-vWf-FITC antibodies were added (final dilution 1/128) and incubated for 40 minutes at RT. Samples were diluted with 350 μl of formal-saline and analyzed by flow cytometry.

platelets = assay: P-HL interaction with platelets in plasma (flow cytometry, co-aggregates); format: cell-based; conditions: 0.75 mM lipid, washed platelets, one hour at room temperature
Experimental: Red anti-Cd42-PE antibodies (7 μL) to detect platelets and 5 μL green anti-vWf-FITC antibodies at a 1/160 dilution were added to the tubes and incubated one more time for 30 min. The samples were diluted to 1 mL with formolsaline solution and analysed by flow cytometry. Singlet platelets (platelet gate), singlet liposomes and co-aggregates (P1 gate) were scored.
The post-stained aggregates were positive for CD42 (GPIb) and vWf. All the relevant controls were done, and the critical double stained examples (with anti-CD42-PE and anti-vWf-FITC) were as follows:
FIG. 37A: platelets alone, double stained with anti-CD42-PE and anti-vWF-FITC FIG. 37B: HL (control liposomes), double stained FIG. 37C: P-HL (D3-peptide hydrogel liposomes), double stained FIG. 37D: HL+platelets, (double stained) FIG. 37E: P-HL+platelets, (double stained)

Substance: EVLKYTLFQI [L-black]
- binding of GPIb (positive spots) (purified GPIb): +ve

Substance: RSARMQVCWNAFKNR (not fully specified) [D-pep3]
- binding of vWf (purified vWf): binding to vWf

Substance: DSCPRDWDNNFLFFE (not fully specified) [D-pep4]
- binding of vWf (purified vWf): binding to vWf

Substance: WQNEGTHVLSRCYEC (not fully specified; cysteine pairing not given here) [D-pep2]
- binding of vWf (purified vWf): binding to vWf

Substance: VSRQNGKQYWAIKEG (not fully specified) [D-pep1]
- binding of vWf (purified vWf): binding to vWf

Substance: D-Pep3-HL: D-Pep3 peptide covalently attached by Michael addition to hydrogel-liposomes ([dR][dS][dA][dR][dM][dQ][dV][dC][dW][dN][dA][dF][dK][dN][dR]; also: covalently attached to PEG hydrogel-coated liposome by Michael addition (Cys thiol or amines))
- stability of the peptide attachment [1]: > 1 months
- binding (capture) of vWf (vWf): able to bind their specific ligand
- aggregate formation with platelets (platelets): form aggregates

Substance: SHAYIGLKDR [L-brown]
- binding of GPIb (positive spots) (purified GPIb): +ve

— patent US20170095421A1, “SYNTHETIC PLATELETS” (Maria I. C. Gyongyossy-Issa, priority 2006, published 2017)
